Article PMC6194124, “Mannosidase activity of EDEM1 and EDEM2 depends on an unfolded state of their glycoprotein substrates” (Communications Biology, 2018)

Biological target: T1, EDEM1-HA (UniProt Q925U4 1-652)
T1 construct: source: HEK 293, transiently transfected (pCMVsport2), in lysate
T1 sequence (looked up): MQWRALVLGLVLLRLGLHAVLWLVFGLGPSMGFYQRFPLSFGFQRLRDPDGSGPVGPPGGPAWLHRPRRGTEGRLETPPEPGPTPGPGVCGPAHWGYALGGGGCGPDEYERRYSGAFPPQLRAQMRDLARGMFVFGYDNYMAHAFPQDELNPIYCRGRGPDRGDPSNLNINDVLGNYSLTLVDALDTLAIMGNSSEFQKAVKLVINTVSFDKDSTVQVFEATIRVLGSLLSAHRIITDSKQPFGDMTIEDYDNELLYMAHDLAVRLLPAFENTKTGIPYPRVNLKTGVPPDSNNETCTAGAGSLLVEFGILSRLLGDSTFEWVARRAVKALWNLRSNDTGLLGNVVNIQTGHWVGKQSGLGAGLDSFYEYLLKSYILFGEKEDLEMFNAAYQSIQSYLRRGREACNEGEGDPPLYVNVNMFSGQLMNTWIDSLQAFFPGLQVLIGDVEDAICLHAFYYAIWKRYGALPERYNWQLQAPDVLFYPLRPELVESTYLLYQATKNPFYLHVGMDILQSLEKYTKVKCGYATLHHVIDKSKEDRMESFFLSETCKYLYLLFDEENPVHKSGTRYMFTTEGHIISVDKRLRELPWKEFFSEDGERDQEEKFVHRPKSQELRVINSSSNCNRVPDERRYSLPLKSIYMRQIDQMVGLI
Assay: co-IP; HEK 293 cells expressing EDEM1-HA or EDEM2-HA with FLAG-TXNDC11 or FLAG-PDI; lysed in mild conditions (1% NP-40, 50 mM Tris/HCl pH 8, 150 mM NaCl); immunoprecipitated with anti-EDEM1 or anti-EDEM2, immunoblotted with anti-FLAG
Details: partners not purified

B1: FLAG-PDI (enzyme)
chain: not shown
notes: mammalian protein disulfide isomerase (PDI); vector a gift from E. Avezov; also called protein disulfide isomerase; source: HEK 293, transiently transfected, in lysate
fold weaker coIP than with TXNDC11: ~15 fold
